For one series, the target named is recombinant human PD-L1 (Homo sapiens, UniProt Q9NZQ7 19-238). In words: BLI; PD-L1 immobilized on AR probe; BLI: 1x PBS pH 7.4, aptamers 3-12 uM, 300 s association, 600 s dissociation, temperature not stated; EMSA: TBE-PAGE, binding buffer composition not given. The settings on record: protein: commercial; stem-loop. For orientation: Biolayer interferometry detects binding as a change in optical thickness at a sensor tip.

For series [1], the target named is PD-L1 on MDA-MB-231-derived exosomes (UniProt Q9NZQ7 19-290). Briefly: ellipsometry (DP-SIS); exosomes 1e1-1e8 particles/mL; no detectable signal; BLI: 1x PBS pH 7.4, aptamers 3-12 uM, 300 s association, 600 s dissociation, temperature not stated; EMSA: TBE-PAGE, binding buffer composition not given. Conditions: protein: native; stem-loop. (In EMSA bound probe runs differently from free probe, usually more slowly.)
Chain of PD-L1 on MDA-MB-231-derived exosomes (Q9NZQ7 19-290): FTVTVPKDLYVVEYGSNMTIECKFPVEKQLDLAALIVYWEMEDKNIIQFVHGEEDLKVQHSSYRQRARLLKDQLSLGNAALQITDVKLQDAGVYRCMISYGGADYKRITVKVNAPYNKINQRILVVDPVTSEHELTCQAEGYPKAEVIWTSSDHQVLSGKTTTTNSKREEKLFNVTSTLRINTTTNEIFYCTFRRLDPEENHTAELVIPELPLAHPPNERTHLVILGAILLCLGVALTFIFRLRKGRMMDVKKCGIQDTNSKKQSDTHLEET

Chain of recombinant human PD-L1 (Q9NZQ7 19-238): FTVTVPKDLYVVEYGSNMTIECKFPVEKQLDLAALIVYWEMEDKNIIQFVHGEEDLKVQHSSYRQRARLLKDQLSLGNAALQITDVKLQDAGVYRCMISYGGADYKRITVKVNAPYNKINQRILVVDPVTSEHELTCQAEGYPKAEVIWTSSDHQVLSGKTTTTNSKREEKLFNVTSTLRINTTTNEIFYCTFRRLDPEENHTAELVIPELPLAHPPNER

A word on the Kd: it is the free concentration of one partner at which half of the binding sites on the other are occupied at equilibrium, for simple one-to-one binding. For the molecule GTACCTGCTCTCCGCGCGAAGCACGCCAGGGACT (structured_DNA, 5' amine (NH2)) [Tr-Apt13], the Kd with recombinant human PD-L1 is ~991 nM.
The same measure, in the same setting: to TGACACCGTACCTGCTCTCCGCGCGAAGCACGCCAGGGACTAT (structured_DNA, 5' amine (NH2)) [Apt13] belongs ~714 nM.
Take ATAGTCCCTGGCGTGCTTGGTCGGCAGAGCAGGTACGGTGTCA (structured_DNA, 5' amine (NH2)) [Apt45]: the binding result in series [1] is “no binding”. For the same molecule, in the series with recombinant human PD-L1, the Kd was ~186 nM.

These data come from PMC12806343, “Aptamer‐Engineered Ellipsometry for Clinical Detection of BALF‐Derived Exosomes: Multi‐Level Engineering for Prognostic Evaluation of Immunotherapy Responses”.
